What all share (experiment): Crosslinking/co-immunoprecipitation/mass spectrometry (TMT quantitative proteomics) to identify irisin receptors
What all share (type): binding

The target of assay [1] is T1, MLO-Y4 cell surface proteins (Mus musculus, UniProt P56567).
T1 construct: endogenous in cells; host or cells: MLO-Y4
T1 sequence (P56567 1-97): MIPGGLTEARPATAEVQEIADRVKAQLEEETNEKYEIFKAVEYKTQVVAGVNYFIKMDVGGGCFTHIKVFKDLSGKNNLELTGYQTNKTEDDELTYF
As to conditions: co-precipitated protein Csta (CYTA_MOUSE). Put shortly:
(§1)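 Mouse MLO-Y4 cells were switched to serum-free FreeStyle medium for 4 h, chilled, then exposed to 10 nM His-tagged irisin (or adipsin as control) for 20 min. Cells were crosslinked with 1.5 mM DTSSP (30 min, ice), and bound proteins were pulled down on Ni-NTA and eluted with 250 mM imidazole. Eluates were separated by SDS-PAGE, trypsin-digested in gel, TMT 6-plex labelled and quantified by MS3-based LC-MS/MS on an Orbitrap Fusion Lumos.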

Assay [2] concerns the target T2, MLO-Y4 cell surface proteins (Mus musculus, UniProt O35143).
T2 construct: endogenous in cells; host or cells: MLO-Y4
T2 sequence (O35143 26-106): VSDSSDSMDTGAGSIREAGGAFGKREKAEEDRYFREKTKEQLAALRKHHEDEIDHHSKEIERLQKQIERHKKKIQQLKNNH
Conditions: co-precipitated protein Atpif1 (ATIF1_MOUSE). Put shortly:
as §1

Assay [3] concerns the target T3, MLO-Y4 cell surface proteins (Mus musculus, UniProt O88689).
T3 construct: endogenous in cells; host or cells: MLO-Y4
T3 sequence (O88689 30-947): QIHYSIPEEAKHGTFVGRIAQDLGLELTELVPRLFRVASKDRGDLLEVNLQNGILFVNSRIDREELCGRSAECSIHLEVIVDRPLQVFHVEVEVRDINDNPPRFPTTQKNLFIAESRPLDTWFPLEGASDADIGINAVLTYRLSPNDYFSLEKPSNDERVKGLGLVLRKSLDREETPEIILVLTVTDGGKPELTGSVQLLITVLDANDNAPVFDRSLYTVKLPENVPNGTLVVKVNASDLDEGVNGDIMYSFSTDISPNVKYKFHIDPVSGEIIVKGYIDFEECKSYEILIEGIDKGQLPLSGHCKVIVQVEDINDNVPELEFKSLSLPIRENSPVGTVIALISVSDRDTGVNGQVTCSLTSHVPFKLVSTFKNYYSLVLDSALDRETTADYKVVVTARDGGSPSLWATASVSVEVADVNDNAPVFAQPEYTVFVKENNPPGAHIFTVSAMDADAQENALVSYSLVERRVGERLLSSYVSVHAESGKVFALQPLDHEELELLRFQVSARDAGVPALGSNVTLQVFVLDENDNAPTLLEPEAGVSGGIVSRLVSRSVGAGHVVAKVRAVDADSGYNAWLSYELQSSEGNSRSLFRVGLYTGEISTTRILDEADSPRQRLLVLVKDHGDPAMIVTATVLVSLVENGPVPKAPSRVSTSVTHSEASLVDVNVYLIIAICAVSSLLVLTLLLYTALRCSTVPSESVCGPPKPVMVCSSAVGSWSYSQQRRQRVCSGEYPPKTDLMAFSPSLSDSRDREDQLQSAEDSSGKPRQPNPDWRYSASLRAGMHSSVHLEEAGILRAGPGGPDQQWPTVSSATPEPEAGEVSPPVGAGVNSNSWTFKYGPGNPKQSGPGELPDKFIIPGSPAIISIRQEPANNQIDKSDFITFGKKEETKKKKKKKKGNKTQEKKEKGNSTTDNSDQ
Conditions: TMT ratio, Pcdha4 Protocadherin alpha-4. Put shortly: as §1

Assay [4] has as its target T4, MLO-Y4 cell surface proteins (Mus musculus, UniProt E9Q0C6).
T4 construct: endogenous in cells; host or cells: MLO-Y4
Conditions: co-precipitated protein Gm14569 (E9Q0C6_MOUSE). The essentials: as §1

T4 sequence (E9Q0C6 whole entry): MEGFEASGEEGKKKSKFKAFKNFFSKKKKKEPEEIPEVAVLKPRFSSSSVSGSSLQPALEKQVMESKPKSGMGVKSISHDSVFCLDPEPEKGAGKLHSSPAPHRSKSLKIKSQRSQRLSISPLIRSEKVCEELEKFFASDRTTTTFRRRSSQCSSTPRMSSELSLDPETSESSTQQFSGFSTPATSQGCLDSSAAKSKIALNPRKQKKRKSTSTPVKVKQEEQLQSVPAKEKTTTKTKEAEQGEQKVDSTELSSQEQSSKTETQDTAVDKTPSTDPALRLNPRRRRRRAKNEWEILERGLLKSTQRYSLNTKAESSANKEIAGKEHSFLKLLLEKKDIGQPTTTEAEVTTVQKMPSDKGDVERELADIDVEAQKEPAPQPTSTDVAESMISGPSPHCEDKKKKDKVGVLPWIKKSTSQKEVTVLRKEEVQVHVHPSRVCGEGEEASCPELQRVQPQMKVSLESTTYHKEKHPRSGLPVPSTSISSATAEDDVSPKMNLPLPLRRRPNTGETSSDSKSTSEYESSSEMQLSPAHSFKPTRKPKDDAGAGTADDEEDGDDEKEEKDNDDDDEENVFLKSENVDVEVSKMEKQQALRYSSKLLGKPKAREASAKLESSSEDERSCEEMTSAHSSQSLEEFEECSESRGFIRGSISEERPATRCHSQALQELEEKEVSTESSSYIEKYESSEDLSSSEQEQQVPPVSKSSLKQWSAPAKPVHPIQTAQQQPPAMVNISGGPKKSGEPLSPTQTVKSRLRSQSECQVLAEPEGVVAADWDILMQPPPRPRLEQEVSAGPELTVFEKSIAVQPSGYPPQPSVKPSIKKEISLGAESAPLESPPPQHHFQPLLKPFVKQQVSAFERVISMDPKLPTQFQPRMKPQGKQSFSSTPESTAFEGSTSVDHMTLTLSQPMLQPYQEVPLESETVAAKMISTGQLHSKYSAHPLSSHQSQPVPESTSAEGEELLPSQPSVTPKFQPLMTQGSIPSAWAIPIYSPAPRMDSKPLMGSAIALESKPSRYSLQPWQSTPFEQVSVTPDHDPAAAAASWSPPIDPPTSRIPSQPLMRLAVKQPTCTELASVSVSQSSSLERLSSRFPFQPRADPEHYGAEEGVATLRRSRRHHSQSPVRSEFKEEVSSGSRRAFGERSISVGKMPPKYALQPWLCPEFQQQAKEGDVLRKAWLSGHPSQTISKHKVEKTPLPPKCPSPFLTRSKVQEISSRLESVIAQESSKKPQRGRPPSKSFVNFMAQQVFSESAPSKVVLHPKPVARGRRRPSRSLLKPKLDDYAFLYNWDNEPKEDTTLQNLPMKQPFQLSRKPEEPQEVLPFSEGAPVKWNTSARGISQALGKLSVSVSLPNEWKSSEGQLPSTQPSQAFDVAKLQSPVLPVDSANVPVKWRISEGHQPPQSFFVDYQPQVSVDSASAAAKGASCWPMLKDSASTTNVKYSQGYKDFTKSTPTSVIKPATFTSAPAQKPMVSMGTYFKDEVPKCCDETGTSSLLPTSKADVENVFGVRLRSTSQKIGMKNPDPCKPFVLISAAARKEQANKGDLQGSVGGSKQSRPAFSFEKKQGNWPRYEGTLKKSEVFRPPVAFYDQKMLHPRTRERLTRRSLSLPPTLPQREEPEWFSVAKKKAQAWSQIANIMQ

B1: irisin: secreted cleaved form of FNDC5; recombinant human/mouse irisin with C-terminal his tag produced in HEK293 cells (protein)
chain: DSPSAPVNVTVRHLKANSAVVSWDVLEDEVVIGFAISQQKKDVRMLRFIQEVNTTTRSCALWDLEEDTEYIVHVQAISIQGQSPASEPVLFKTPREAEKMASKNKDEVTMKE
modifications: left off: small tags and cut ends
notes: secreted cleaved form of FNDC5; recombinant human/mouse irisin with C-terminal his tag produced in HEK293 cells
Consider B1, for which the TMT signal-to-noise ratio was determined as 2.132 in assay [1], 229.372 in assay [2] and 8.647 in assay [4]. The “irisin/adipsin TMT signal-to-noise ratio” value in assay [1] is 0.013; in assay [2], 0.505; in assay [4], 0.039. For the same molecule, the irsin/adipsin in assay [3] is 4.39.

Source of the values: patent US20210063414A1, “METHODS FOR PREVENTING AND/OR TREATING BONE LOSS CONDITIONS BY MODULATING IRISIN” (Dana-Farber Cancer Institute, Inc., priority 2018, published 2021).
